Experimental data taken from article PMC9035715, “Regulatory subunit NEMO promotes polyubiquitin-dependent induction of NF-κB through a targetable second interaction with upstream activator IKK2” (The Journal of Biological Chemistry, 2022).

Columns and labels:
Settings in all cases: both partners purified
[1] = biological target: T1, linear tetra-ubiquitin (Ub4), M1-linked (UniProt P0CG48 1-76; P0CG48 1-76; P0CG48 1-76; P0CG48 1-76); assay: SEC; Superose6 Increase 10/300 GL; 25 mM Tris–HCl pH 8.0, 250 mM NaCl, 2 mM DTT, 5% glycerol; 0.2 ml/min, 22 °C; peak fractions on Coomassie-stained SDS-PAGE
T1 construct: ubiquitin, copy 1 of four moieties covalently linked N-terminal to C-terminal on one chain (M1 linked); ubiquitin, copy 2 of four; ubiquitin, copy 3 of four; ubiquitin, copy 4 of four; also called linear poly-Ub; methionine-linked Ub4 chain; source: recombinant (pET24d construct), purified; not shown: His6, N-terminal, kept
T1 sequence (P0CG48 1-304, one chain of several): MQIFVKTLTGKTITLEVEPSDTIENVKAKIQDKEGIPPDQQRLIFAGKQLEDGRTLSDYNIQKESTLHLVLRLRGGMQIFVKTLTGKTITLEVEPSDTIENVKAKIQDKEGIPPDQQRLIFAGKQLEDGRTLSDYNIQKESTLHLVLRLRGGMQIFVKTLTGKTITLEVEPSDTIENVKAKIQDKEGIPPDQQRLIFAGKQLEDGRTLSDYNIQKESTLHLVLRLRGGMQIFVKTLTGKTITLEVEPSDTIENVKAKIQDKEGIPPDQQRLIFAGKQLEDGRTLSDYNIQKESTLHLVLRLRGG

[2] = biological target: T1, linear tetra-ubiquitin (Ub4), M1-linked; assay: pull-down; Ub4 recovered with GST-NEMO^241–419 from mixtures with HA-IKK2 HEK293T lysate, with or without TAT peptides (200–25 μM), 2 h at 4 °C; Western blot
[3] = biological target: T1, linear tetra-ubiquitin (Ub4), M1-linked; assay: pull-down; purified GST-NEMO fusions mixed with purified IKK proteins in the presence of Ub4, 1 h at 4 °C, then glutathione–agarose beads 2 h at 4 °C; 25 mM Tris–HCl pH 7.5, 150 mM NaCl, 1 mM EDTA, 0.5% NP-40, 0.55% Triton X-100, 5% glycerol, 1 mM DTT; four washes; Western blot

binding result [1] | Binder | further results
binds | GST-NEMO^241–390 (domain or fragment, human, UniProt Q9Y6K9 241-390, looked up, source: E. coli Rosetta (DE3), purified (glutathione–agarose); not shown: GST, N-terminal, kept) YDNHIKSSVVGSERKRGMQLEDLKQQLQQAEEALVAKQEVIDKLKEEAEQHKIVMETVPVLKAQADIYKADFQAERQAREKLAEKKELLQEQLEQLQREYSKLKASCQESARIEDMRKRHVEVSQAPLPPAPAYLSSPLALPSQRRSPPE | 
binds | GST-NEMO^241–350 (domain or fragment, human, UniProt Q9Y6K9 241-350, looked up, source: E. coli Rosetta (DE3), purified (glutathione–agarose); not shown: GST, N-terminal, kept) YDNHIKSSVVGSERKRGMQLEDLKQQLQQAEEALVAKQEVIDKLKEEAEQHKIVMETVPVLKAQADIYKADFQAERQAREKLAEKKELLQEQLEQLQREYSKLKASCQES | 
binds | GST-NEMO^241–375 (domain or fragment, human, UniProt Q9Y6K9 241-375, looked up, source: E. coli Rosetta (DE3), purified (glutathione–agarose); not shown: GST, N-terminal, kept) YDNHIKSSVVGSERKRGMQLEDLKQQLQQAEEALVAKQEVIDKLKEEAEQHKIVMETVPVLKAQADIYKADFQAERQAREKLAEKKELLQEQLEQLQREYSKLKASCQESARIEDMRKRHVEVSQAPLPPAPAYL | 
 | GST-NEMO^241–419 (domain or fragment, human, UniProt Q9Y6K9 241-419, looked up, also called CC2-ZF; source: E. coli Rosetta (DE3), purified (glutathione–agarose); not shown: GST, N-terminal, kept) YDNHIKSSVVGSERKRGMQLEDLKQQLQQAEEALVAKQEVIDKLKEEAEQHKIVMETVPVLKAQADIYKADFQAERQAREKLAEKKELLQEQLEQLQREYSKLKASCQESARIEDMRKRHVEVSQAPLPPAPAYLSSPLALPSQRRSPPEEPPDFCCPKCQYQAPDMDTLQIHVMECIE | binding result [2]: binds
binds | GST-NEMO^241–383 (domain or fragment, human, UniProt Q9Y6K9 241-383, looked up, source: E. coli Rosetta (DE3), purified (glutathione–agarose); not shown: GST, N-terminal, kept) YDNHIKSSVVGSERKRGMQLEDLKQQLQQAEEALVAKQEVIDKLKEEAEQHKIVMETVPVLKAQADIYKADFQAERQAREKLAEKKELLQEQLEQLQREYSKLKASCQESARIEDMRKRHVEVSQAPLPPAPAYLSSPLALPS | 
 | GST-NEMO^111–419 (domain or fragment, human, UniProt Q9Y6K9 111-419, looked up, also called truncated NEMO (lacking the KBD); source: E. coli Rosetta (DE3), purified (glutathione–agarose); not shown: GST, N-terminal, kept) KLDLKRQKEQALREVEHLKRCQQQMAEDKASVKAQVTSLLGELQESQSRLEAATKECQALEGRARAASEQARQLESEREALQQQHSVQVDQLRMQGQSVEAALRMERQAASEEKRKLAQLQVAYHQLFQEYDNHIKSSVVGSERKRGMQLEDLKQQLQQAEEALVAKQEVIDKLKEEAEQHKIVMETVPVLKAQADIYKADFQAERQAREKLAEKKELLQEQLEQLQREYSKLKASCQESARIEDMRKRHVEVSQAPLPPAPAYLSSPLALPSQRRSPPEEPPDFCCPKCQYQAPDMDTLQIHVMECIE | binding result [3]: binds
